Reference: patent US20210155689A1 (SHANGHAI PHARMAEXPLORER, published 2021)

Experiments:
[1] = target: T1, human LAG-3 (full length, on the cell surface) (human, UniProt P18627 23-525); test: cell-based or functional assay
T1 sequence: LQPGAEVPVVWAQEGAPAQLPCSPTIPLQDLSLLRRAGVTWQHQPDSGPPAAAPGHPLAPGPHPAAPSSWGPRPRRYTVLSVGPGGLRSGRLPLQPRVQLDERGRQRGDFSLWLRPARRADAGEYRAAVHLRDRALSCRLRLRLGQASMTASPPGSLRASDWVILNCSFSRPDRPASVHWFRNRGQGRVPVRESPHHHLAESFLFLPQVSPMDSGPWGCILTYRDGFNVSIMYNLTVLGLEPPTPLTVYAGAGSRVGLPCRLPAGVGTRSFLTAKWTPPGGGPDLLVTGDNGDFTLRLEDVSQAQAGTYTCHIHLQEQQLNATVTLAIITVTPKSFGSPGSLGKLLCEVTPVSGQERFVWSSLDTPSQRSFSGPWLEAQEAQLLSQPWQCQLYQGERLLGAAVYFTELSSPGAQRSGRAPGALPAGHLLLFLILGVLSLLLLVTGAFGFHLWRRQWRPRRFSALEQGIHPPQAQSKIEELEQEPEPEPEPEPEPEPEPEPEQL

[2] = target: T2, mouse LAG-3 protein with hFc tag (mLAG-3-hFc protein) (mouse; human, UniProt Q61790 24-442); test: ELISA, mLAG-3-hFc coated; 66.6670 nM
T2 construct: Made in HEK293 cells; also called mouse LAG-3 extracellular domain protein; not shown: human IgG Fc fragment (hFc) of the pCpC vector
T2 sequence: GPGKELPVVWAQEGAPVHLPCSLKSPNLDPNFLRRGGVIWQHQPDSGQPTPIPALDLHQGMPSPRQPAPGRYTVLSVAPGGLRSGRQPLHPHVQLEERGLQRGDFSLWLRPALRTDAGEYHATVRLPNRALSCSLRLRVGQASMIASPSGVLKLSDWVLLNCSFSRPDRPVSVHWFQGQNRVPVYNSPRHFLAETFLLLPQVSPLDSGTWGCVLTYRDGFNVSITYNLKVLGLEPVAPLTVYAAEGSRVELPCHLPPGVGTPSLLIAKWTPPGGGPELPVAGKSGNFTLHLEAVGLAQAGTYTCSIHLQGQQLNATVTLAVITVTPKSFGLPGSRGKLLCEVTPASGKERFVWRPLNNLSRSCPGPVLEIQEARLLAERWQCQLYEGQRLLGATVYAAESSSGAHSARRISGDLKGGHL
Description: (§1) The plate was sealed with plastic film and incubated overnight at 4° C. The plate was washed 2 times with the plate washing solution (PBS+0.01% Tween20) on the next day, and added with the blocking solution (PBS+0.01% Tween20+1% BSA) and blocked at room temperature for 1-2 hours. The blocking solution was poured out, and the plate was added with 50-100 μl of the antibody sample to be tested to each well, incubated at 37° C. for 1-2 hours, and washed 2-3 times with a plate washing solution (PBS+0.01% Tween20). HRP (horseradish peroxidase) labeled secondary antibody was added, and the plate was incubated at 37° C. for 1-2 hours, and washed 2-3 times with a plate washing solution (PBS+0.01% Tween20). 100 μl of TMB substrate was added to each well. After incubated at room temperature for 15-30 minutes, the plate was added with 100 μl of stop solution (1.0N HCl) to each well.

[3] = target: T3, hFc tagged monkey LAG-3 protein (cLAG-3-hFc protein) (monkey; human); test: ELISA, cLAG-3-hFc coated; 0.0001 nM
T3 construct: Made in HEK293 cells; also called monkey LAG-3 extracellular domain protein; not shown: human IgG Fc fragment (hFc) of the pCpC vector
T3 chain: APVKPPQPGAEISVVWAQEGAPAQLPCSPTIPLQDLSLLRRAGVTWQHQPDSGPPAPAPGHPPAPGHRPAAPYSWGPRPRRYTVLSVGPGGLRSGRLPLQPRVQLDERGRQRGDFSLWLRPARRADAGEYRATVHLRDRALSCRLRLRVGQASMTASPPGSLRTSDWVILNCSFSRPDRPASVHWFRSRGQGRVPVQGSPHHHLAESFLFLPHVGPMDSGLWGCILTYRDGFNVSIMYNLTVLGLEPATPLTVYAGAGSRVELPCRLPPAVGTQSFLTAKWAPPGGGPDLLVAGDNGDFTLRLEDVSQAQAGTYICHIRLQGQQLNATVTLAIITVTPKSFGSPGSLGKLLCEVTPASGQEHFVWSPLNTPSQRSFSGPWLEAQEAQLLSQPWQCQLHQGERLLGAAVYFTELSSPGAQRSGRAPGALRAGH
Description: as §1

[4] = target: T4, human LAG-3 protein with hFc tag (hLAG-3-hFc protein) (human, UniProt P18627 23-450); test: ELISA, hLAG-3-hFc coated; 66.6670 nM
T4 construct: also called immunogen 1; LAG-3 extracellular domain protein; not shown: human IgG Fc fragment (hFc) of the pCpC vector
T4 sequence: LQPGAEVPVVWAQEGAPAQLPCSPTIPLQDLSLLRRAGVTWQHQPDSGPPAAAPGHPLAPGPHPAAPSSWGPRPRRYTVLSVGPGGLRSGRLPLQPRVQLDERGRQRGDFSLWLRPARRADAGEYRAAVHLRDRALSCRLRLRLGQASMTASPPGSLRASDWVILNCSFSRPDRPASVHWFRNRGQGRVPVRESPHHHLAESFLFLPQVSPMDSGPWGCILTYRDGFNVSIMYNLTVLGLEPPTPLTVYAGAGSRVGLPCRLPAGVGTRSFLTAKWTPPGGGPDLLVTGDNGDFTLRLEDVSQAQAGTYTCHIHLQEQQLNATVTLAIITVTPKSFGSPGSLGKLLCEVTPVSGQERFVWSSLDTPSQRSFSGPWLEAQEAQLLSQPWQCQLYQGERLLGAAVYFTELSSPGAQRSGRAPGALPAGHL
Description: as §1

B1: 556F6B8 (mouse antibody purified from hybridoma) (antibody, V domains shown)
VH: RVQLKQSGPGLVQPSQSLSITCTVSGFSLIKYGVHWVRQSPGEGLEWLGVIWRGGITDYNAAFMSRLSITKDNSKSQVFFKMNSLQADDTAIYYCAKWDGPLAMDYWGQGTSVTVSS
VL: DIVMTQSHKFLSTSVGDRVSITCKASQDVGTTVAWYQQKPGQSPKLLIYWASTRHTGVPDRFTGSGSGTDFTLTISNVQSEDLADYFCQQYSSYPYTFGGGTKLEIK
notes: also called mAb123-556F6B8
- mIL-2 (pg/mL), antigen-specific T lymphocyte stimulation test; antibody 0.016 ug/mL [1]: 88.3 pg/mL
- mIL-2 (pg/mL), antigen-specific T lymphocyte stimulation test; antibody 0.08 ug/mL [1]: 141 pg/mL
- mIL-2 (pg/mL), antigen-specific T lymphocyte stimulation test; antibody 2 ug/mL [1]: 270 pg/mL
- mIL-2 (pg/mL), antigen-specific T lymphocyte stimulation test; antibody 4 ug/mL (so in the source) [1]: 214 pg/mL
- mIL-2 (pg/mL), antigen-specific T lymphocyte stimulation test; antibody 10 ug/mL [1]: 255 pg/mL

B2: 556F6B8 (LAG-3 mouse-human chimeric antibody) (antibody, V domains shown)
VH: RVQLKQSGPGLVQPSQSLSITCTVSGFSLIKYGVHWVRQSPGEGLEWLGVIWRGGITDYNAAFMSRLSITKDNSKSQVFFKMNSLQADDTAIYYCAKWDGPLAMDYWGQGTSVTVSS
VL: DIVMTQSHKFLSTSVGDRVSITCKASQDVGTTVAWYQQKPGQSPKLLIYWASTRHTGVPDRFTGSGSGTDFTLTISNVQSEDLADYFCQQYSSYPYTFGGGTKLEIK
notes: also called 556F8B8
- OD450 [2]: 1.08 OD450
- OD450 [3]: 0.18 OD450
- OD450 [4]: 3.69 OD450

B3: 405B8H3 (mouse antibody purified from hybridoma) (antibody, V domains shown)
VH: QVQLQQSGAELVRPGASVTLSCKASGYTFTDYEMHWVKQTPVHGLEWIGATDPETGNSAYNQKFKGKAIMTADKSSSTAYMELRSLTSEDSAVYYCISTGWNDWGQGTSLTVSS
VL: DIKMTQSPSSMYASLGERVTITCKASQDINSYLSWFQQKPGKSPKTLIYRADRLLDGVPSRFSGSGSGQDYSLTISSLEYGDMGIYYCLQYDEFPYTFGGGTKLEIK
notes: also called mAb103-405B8H3; 405B81-13
- mIL-2 (pg/mL), antigen-specific T lymphocyte stimulation test; antibody 0.016 ug/mL [1]: 205 pg/mL
- mIL-2 (pg/mL), antigen-specific T lymphocyte stimulation test; antibody 0.08 ug/mL [1]: 204 pg/mL
- mIL-2 (pg/mL), antigen-specific T lymphocyte stimulation test; antibody 2 ug/mL [1]: 435 pg/mL
- mIL-2 (pg/mL), antigen-specific T lymphocyte stimulation test; antibody 4 ug/mL (so in the source) [1]: 392 pg/mL
- mIL-2 (pg/mL), antigen-specific T lymphocyte stimulation test; antibody 10 ug/mL [1]: 441 pg/mL

B4: 405B8H3 (LAG-3 mouse-human chimeric antibody) (antibody, V domains shown)
VH: QVQLQQSGAELVRPGASVTLSCKASGYTFTDYEMHWVKQTPVHGLEWIGATDPETGNSAYNQKFKGKAIMTADKSSSTAYMELRSLTSEDSAVYYCISTGWNDWGQGTSLTVSS
VL: DIKMTQSPSSMYASLGERVTITCKASQDINSYLSWFQQKPGKSPKTLIYRADRLLDGVPSRFSGSGSGQDYSLTISSLEYGDMGIYYCLQYDEFPYTFGGGTKLEIK
notes: also called mouse-human chimeric antibody 405B8H3
- OD450 [2]: 1.1 OD450
- OD450 [3]: 0.15 OD450
- OD450 [4]: 3.57 OD450

B5: 105F1E10 (LAG-3 mouse-human chimeric antibody) (antibody, V domains shown)
VH: EVQLQQSGPELVKPGASVKMSCRASGYTFTDFKMHWMKQSHGKSLEWIGYIAPNNGGTAYNQKFRGKATLTVNESSNTAYMELRSLTSEDSAVYYCVDWDDVDYWGQGTTLTVSS
VL: DIKMTQSPSSMYASLGERVTITCKASQDINSYLSWFQQKSGKSPKTLIYRANRLVDGVPSRFSGSGSGQDYSLTISSLEYEDMGIYYCLQYVEFPLTFGAGTKLELK
- OD450 [2]: 0.54 OD450
- OD450 [3]: 0.14 OD450
- OD450 [4]: 3.6 OD450

B6: 409D4E10 (mouse antibody purified from hybridoma) (antibody, V domains shown)
VH: QVQLQQSGAELVRPGASVTLSCKASGNTFTDYEMHWVKQTPVHGLEWIGATDPETDNTAYNQKFKGKAILTTDKSSSTAYMELRSLTSEDSAVYYCITSGWNDWGQGTSLTVSS
VL: DIKMTQSPSSMYASLGERVTITCKASQDINSYLSWFQQKPGKSPKTLIYRANRLLDGVPSRFSGSGSGQDYSLTISSLEYEDMGIYYCLQYNEFPYTFGGGTKLEIK
notes: also called mAb112-409D4E10
- mIL-2 (pg/mL), antigen-specific T lymphocyte stimulation test; antibody 0.016 ug/mL [1]: 172 pg/mL
- mIL-2 (pg/mL), antigen-specific T lymphocyte stimulation test; antibody 0.08 ug/mL [1]: 175 pg/mL
- mIL-2 (pg/mL), antigen-specific T lymphocyte stimulation test; antibody 2 ug/mL [1]: 346 pg/mL
- mIL-2 (pg/mL), antigen-specific T lymphocyte stimulation test; antibody 4 ug/mL (so in the source) [1]: 261 pg/mL
- mIL-2 (pg/mL), antigen-specific T lymphocyte stimulation test; antibody 10 ug/mL [1]: 335 pg/mL

B7: 409D4E10 (LAG-3 mouse-human chimeric antibody) (antibody, V domains shown)
VH: QVQLQQSGAELVRPGASVTLSCKASGNTFTDYEMHWVKQTPVHGLEWIGATDPETDNTAYNQKFKGKAILTTDKSSSTAYMELRSLTSEDSAVYYCITSGWNDWGQGTSLTVSS
VL: DIKMTQSPSSMYASLGERVTITCKASQDINSYLSWFQQKPGKSPKTLIYRANRLLDGVPSRFSGSGSGQDYSLTISSLEYEDMGIYYCLQYNEFPYTFGGGTKLEIK
- OD450 [2]: 1.06 OD450
- OD450 [3]: 0.19 OD450
- OD450 [4]: 3.73 OD450

B8: 409B11E12 (LAG-3 mouse-human chimeric antibody) (antibody, V domains shown)
VH: QVQLQQSGAELVRPGASVTLSCKASGYTFTDYEMHWVKQTTVHGLEWIGATDPETSYSAYNQKFKGKAILTADKSSSTAYMELRSLTSEDSAVYYCIATGWNDWGQGTSLTVSS
VL: DLKMTQSPSSMYASLGERVTITCKASQDINSYLSWFQQKPGKSPKTLIYRANRLLDGVPSRFSGSGSGQDYSLTISSLEYEDMGIYYCLQYDEFPYTFGGGTKLEIK
- OD450 [2]: 1.1 OD450
- OD450 [3]: 0.14 OD450
- OD450 [4]: 3.59 OD450

B9: 409B11E12 (mouse antibody purified from hybridoma) (antibody, V domains shown)
VH: QVQLQQSGAELVRPGASVTLSCKASGYTFTDYEMHWVKQTTVHGLEWIGATDPETSYSAYNQKFKGKAILTADKSSSTAYMELRSLTSEDSAVYYCIATGWNDWGQGTSLTVSS
VL: DLKMTQSPSSMYASLGERVTITCKASQDINSYLSWFQQKPGKSPKTLIYRANRLLDGVPSRFSGSGSGQDYSLTISSLEYEDMGIYYCLQYDEFPYTFGGGTKLEIK
notes: also called mAb104-409B11E12
- mIL-2 (pg/mL), antigen-specific T lymphocyte stimulation test; antibody 0.016 ug/mL [1]: 187 pg/mL
- mIL-2 (pg/mL), antigen-specific T lymphocyte stimulation test; antibody 0.08 ug/mL [1]: 183 pg/mL
- mIL-2 (pg/mL), antigen-specific T lymphocyte stimulation test; antibody 2 ug/mL [1]: 376 pg/mL
- mIL-2 (pg/mL), antigen-specific T lymphocyte stimulation test; antibody 4 ug/mL (so in the source) [1]: 374 pg/mL
- mIL-2 (pg/mL), antigen-specific T lymphocyte stimulation test; antibody 10 ug/mL [1]: 364 pg/mL
